Measurements as given in CN111518208A (QICHEN BAITAI BEIJING MEDICAL TECH CO LTD, dated 2020).
Numbering of substitutions follows the chain as printed.

B1: 抗人CD47单克隆抗体A1 (antibody, V domains shown)
VH: EFQLQQSGPELVKPGASVKMSCKASGYTFTNYVLHWVKQKPGQGLEWIGYFNPYNDDSKYNEKFKGKATLTSDKSSSTAYMELSSLTSEDSAVYYCARGGYYSMDYWGQGTTVTVSS
VL: DVMTQTPLSLPVSLGDQASISCRASQSLAHSNGYTYLQWYLQKPGQSPKLLIYKVSKRFSGVPDRFSGSGSGTDFTLKISRVEAEDLGVYFCSQSTHVPYTFGQGTKVEIK
B2: 抗人CD47单克隆抗体A3 (antibody, V domains shown)
VH: QVQLQQPGAELVRPGASVKLSCKASGHTFTNYWMNWIKQRPEQGLEWIGNIDPYDSETHYNQKFKDKAILTVGKSSSTAYMQLSSLTSEDSAVYYCAIWRGYALDYWGQGTSVTVSS
VL: CDVQITQSPSYLAASPGETITINCRASKSISKFLAWYQEKPGKTNNLLIYSGSTLQSGIPSRFSGSGSGTDFTLTISSLEPEDFAMYYCQQHNEYPWTFGGGTKLEIK
B3: 抗人CD47单克隆抗体A2 (antibody, V domains shown)
VH: EVQVQQSGPELVKPGASVKISCKASGYSFTGYFMNWVKQSHGKSLEWIGRINPYNGDTFYNQKFKGKATLTVDKSSSTAHMELLSLTSEDSAVYYCGRGGYGGMDYWGQGTSVTVSS
VL: DVLMTQTPLSLPVSLGDQASISCRSSQSIVHSNGNTYLEWYLQKPGQSPKLLIYKVSNRFSGVPDRFSGSGSGTDFTLKISRVEAEDLGVYYCFQGSHVPYTFGGGTKLEIK
B4: 抗人CD47单克隆抗体A5 (antibody, V domains shown)
VH: EVQLQQSGPELVKPGASMRMSCKASGYSFTGYTMHWVKQSHGTNLEWIGLINPYTGGTNYNQKFKGKATLTLDKSSSTAYMELLSLTSEDFAVYYCARMGLAWFAYWGQGTLVTVSA
VL: B3 VL with L3V, I29L, L38F, E39H, Y92F, F94S, G96S, S97T, I111M
B5: 抗人CD47单克隆抗体A6 (antibody, V domains shown)
VH: QVQLQQSGAELVRPGASVTLSCKASGYSFTDSEMHWVKQTPVYGLEWTGVIDPETGNSAYNQKFKGKATLTADKSSNTAYMELRSLTSEDSAVYYCTRGGVFGYPFDYWGQGTTLTVSS
VL: ENVLTQSPAIMAASLGQKVTMTCSATSSVRSSYLHWYQQKSGASPKPLIHRTSNLASGVPARFSGSGSGTSYSLTISSVEAEDDATYYCQQWRGYPYTFGGGTKLEIK

molecular target: 细胞膜表面表达的人CD47蛋白 (human, UniProt Q08722 19-323); assay: cell-based or functional assay
Sequence (Q08722 19-323): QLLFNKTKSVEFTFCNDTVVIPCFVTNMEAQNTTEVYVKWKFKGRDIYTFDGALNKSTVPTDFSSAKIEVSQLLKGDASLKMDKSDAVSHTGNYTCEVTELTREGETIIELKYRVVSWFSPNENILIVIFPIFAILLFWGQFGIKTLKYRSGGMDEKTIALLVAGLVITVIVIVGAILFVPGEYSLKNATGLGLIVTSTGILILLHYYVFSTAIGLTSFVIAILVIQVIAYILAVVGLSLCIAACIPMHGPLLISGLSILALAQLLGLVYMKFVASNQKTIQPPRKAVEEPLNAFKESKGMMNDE

促吞噬曲线的EC50值 (ATP法, C57BL小鼠腹腔原代巨噬细胞对Raji细胞的吞噬) | Binder
0.00439 微克/毫升 | B1
0.00391 微克/毫升 | B2
0.00462 微克/毫升 | B3
0.00665 微克/毫升 | B4
0.00568 微克/毫升 | B5

molecular target: T1, 人CD47蛋白胞外区融合蛋白(hCD47-ECD-6His) (human, UniProt Q08722 19-139, limits assumed); assay: ELISA, hCD47-ECD-6His coated, goat anti-mouse IgG-HRP
T1 construct: extracellular domain; Made in FreeStyle 293F cells, purified on a nickel column; not shown: linker peptide-6His (连接肽-6His)
T1 sequence (Q08722 19-139 limits assumed): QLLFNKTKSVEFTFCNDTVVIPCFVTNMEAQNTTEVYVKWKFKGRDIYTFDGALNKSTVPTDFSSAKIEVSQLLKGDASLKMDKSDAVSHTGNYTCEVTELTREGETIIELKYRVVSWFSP

EC50 | Binder
0.016 µg/mL | B1
0.01 µg/mL | B2
0.007 µg/mL | B3
0.016 µg/mL | B4
0.01 µg/mL | B5
